From PMC11331971 (Nature, 2023)
Residue numbers refer to the chain shown, from its start. In names and notes the source's numbering stands. Where two headings read alike, the source gives them in different places.

B1: anti-TMPRSS2 nanobody VHH-D01 (VHH)
VHH: EVQLVESGGGLVQPGGPLRLSCASSGSTLEHYDIGWFRQVPGGLREGVSSITASGGRTNYADSVKGRFTISRDNGKNAVYLQMNSLKPEDTAVYYCAGKIGGRRNWVAPLDGFENAYWGQGTQVTVSS
B2: anti-TMPRSS2 nanobody VHH-F05 (VHH)
VHH: EVQLVESGGGLVQPGGSLRLSCAASGFTLDYYAIGWFRQAPGKEREGVSCISSSGDSIKYVDSVKGRFTISRDNAKNTVYLQMNSLKPEDTAVYQCAADALGSGCLTGNYDYWGQGTRVTVSS
B3: anti-TMPRSS2 nanobody VHH-C11 (VHH)
VHH: QVQLVESGGGLVQPGGSLRLSCAASGFTLDYYDIYWFRQAPGKEREGVSSITTSGGRTNYADSVKGRFTISRDNAKNTVYLQMNSLKPEDTAVYYCAAKVGGRRNWIAPLNGYENALWGKGTLVTVSS
B4: HKU1B receptor binding domain (residues 323-607) (domain or fragment)
chain: NLPDCDIDNWLNNVSVPSPLNWERRIFSNCNFNLSTLLRLVHVDSFSCNNLDKSKIFGSCFNSITVDKFAIPNRRRDDLQLGSSGFLQSSNYKIDISSSSCQLYYSLPLVNVTINNFNPSSWNRRYGFGSFNLSSYDVVYSDHCFSVNSDFCPCADPSVVNSCAKSKPPSAICPAGTKYRHCDLDTTLYVKNWCRCSCLPDPISTYSPNTCPQKKVVVGIGEHCPGLGINEEKCGTQLNHSSCFCSPDAFLGWSFDSCISNNRCNIFSNFIFNGINSGTTCSNDL
modifications: biotinylated with the BirA biotin-protein ligase kit for the BLI experiment with nanobodies only
B5: HKU1B receptor binding domain with the R517A mutation (domain or fragment)
chain: B4 chain with R195A
B6: anti-TMPRSS2 nanobody VHH-A07 (VHH)
VHH: QVQLVESGGGLVQPGGSLRLSCTSSGSPLEHYDIIWFRQAPGREREGVSSITTSGGHTNYADSVKDRFTISRDNAKNVVYLQMNSLKPEDTAVYYCAGRVGGRRNWIVPLDGYDNAYWGQGTQVTVSS
B7: TMPRSS2 (transmembrane-serine protease 2), wild type, on transfected 293T cells (receptor)
chain: MALNSGSPPAIGPYYENHGYQPENPYPAQPTVVPTVYEVHPAQYYPSPVPQYAPRVLTQASNPVVCTQPKSPSGTVCTSKTKKALCITLTLGTFLVGAALAAGLLWKFMGSKCSNSGIECDSSGTCINPSNWCDGVSHCPGGEDENRCVRLYGPNFILQVYSSQRKSWHPVCQDDWNENYGRAACRDMGYKNNFYSSQGIVDDSGSTSFMKLNTSAGNVDIYKKLYHSDACSSKAVVSLRCIACGVNLNSSRQSRIVGGESALPGAWPWQVSLHVQNVHVCGGSIITPEWIVTAAHCVEKPLNNPWHWTAFAGILRQSFMFYGAGYQVEKVISHPNYDSKTKNNDIALMKLQKPLTFNDLVKPVCLPNPGMMLQPEQLCWISGWGATEEKGKTSEVLNAAKVLLIETQRCNSRYVYDNLITPAMICAGFLQGNVDSCQGDSGGPLVTSKNNIWWLIGDTSWGSGCAKAYRPGVYGNVMVFTDWIYRQMRADG
B8: HKU1A receptor binding domain (residues 323-609) (domain or fragment)
chain: DLPDCDIDKWLNNFNVPSPLNWERKIFSNCNFNLSTLLRLVHTDSFSCNNFDESKIYGSCFKSIVLDKFAIPNSRRSDLQLGSSGFLQSSNYKIDTTSSSCQLYYSLPAINVTINNYNPSSWNRRYGFNNFNLSSHSVVYSRYCFSVNNTFCPCAKPSFASSCKSHKPPSASCPIGTNYRSCESTTVLDHTDWCRCSCLPDPITAYDPRSCSQKKSLVGVGEHCAGFGVDEEKCGVLDGSYNVSCLCSTDAFLGWSYDTCVSNNRCNIFSNFILNGINSGTTCSNDL
B9: anti-TMPRSS2 nanobody VHH-A01 (VHH)
VHH: QVQLVESGGGLVQPGGSLRLSCVVSGFSLDYYAIGWFRQAPGKEREGVSCIGSSGDKTNYADSVKGRFTISRDNAKNTVYLQMNSLKPEDTAVYYCAAESALYSDCTEEQNPMLYDYWGQGTQVTVSS

Assays:
[1] = biological target: S441A TMPRSS2 ectodomain, soluble (human, UniProt O15393, S441A); assay: BLI
[2] = biological target: T1, S441A TMPRSS2 ectodomain, soluble (human, UniProt O15393 106-492, S441A); assay: BLI
[3] = biological target: T1, S441A TMPRSS2 ectodomain, soluble; assay: BLI; remark: listed apart in the source
[4] = biological target: dimeric anti-TMPRSS2 VHH-A01-Fc (alpaca (Lama pacos)); assay: flow cytometry on cells

Chain of S441A TMPRSS2 ectodomain, soluble (human, UniProt O15393, S441A) (O15393 106-492 S441A): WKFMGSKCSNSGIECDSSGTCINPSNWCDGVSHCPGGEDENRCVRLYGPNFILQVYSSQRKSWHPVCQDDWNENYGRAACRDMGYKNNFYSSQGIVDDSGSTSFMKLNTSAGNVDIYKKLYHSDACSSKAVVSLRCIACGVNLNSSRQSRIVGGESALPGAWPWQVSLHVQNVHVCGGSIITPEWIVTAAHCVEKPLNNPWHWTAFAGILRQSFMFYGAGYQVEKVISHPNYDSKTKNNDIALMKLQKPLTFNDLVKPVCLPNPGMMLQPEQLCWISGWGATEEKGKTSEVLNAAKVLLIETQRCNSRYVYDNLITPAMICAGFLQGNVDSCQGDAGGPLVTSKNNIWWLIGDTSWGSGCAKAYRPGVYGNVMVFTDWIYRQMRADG

Binder	Kd [1]	koff [1]	Kd [3]	also measured
B1	6 nM	0.00048 s⁻¹		
B2	2.6 nM	0.00019 s⁻¹		
B3	32.5 nM	0.00023 s⁻¹		
B4			137 ± 20.8 nM	Kd [2]: 131 nM
B5			376 ± 96.4 nM	
B6	13.3 nM	0.0011 s⁻¹		
B7				binding result [4]: binds
B8			334 ± 66.2 nM	
B9	0.78 nM	5.1e-05 s⁻¹		
